Measurements from paper PMC11846989 (Communications Biology, 2025).

B1: human GBP2 G domain (1-309), wild type (domain or fragment, UniProt P32456 1-309, looked up)
chain: MAPEINLPGPMSLIDNTKGQLVVNPEALKILSAITQPVVVVAIVGLYRTGKSYLMNKLAGKKNGFSLGSTVKSHTKGIWMWCVPHPKKPEHTLVLLDTEGLGDIEKGDNENDSWIFALAILLSSTFVYNSMGTINQQAMDQLHYVTELTDRIKANSSPGNNSVDDSADFVSFFPAFVWTLRDFTLELEVDGEPITADDYLELSLKLRKGTDKKSKSFNDPRLCIRKFFPKRKCFVFDWPAPKKYLAHLEQLKEEELNPDFIEQVAEFCSYILSHSNVKTLSGGIPVNGPRLESLVLTYVNAISSGDLPC
B2: full-length human GBP2 (guanylate-binding protein 2), wild type (natural protein, UniProt P32456 1-591, looked up)
chain: MAPEINLPGPMSLIDNTKGQLVVNPEALKILSAITQPVVVVAIVGLYRTGKSYLMNKLAGKKNGFSLGSTVKSHTKGIWMWCVPHPKKPEHTLVLLDTEGLGDIEKGDNENDSWIFALAILLSSTFVYNSMGTINQQAMDQLHYVTELTDRIKANSSPGNNSVDDSADFVSFFPAFVWTLRDFTLELEVDGEPITADDYLELSLKLRKGTDKKSKSFNDPRLCIRKFFPKRKCFVFDWPAPKKYLAHLEQLKEEELNPDFIEQVAEFCSYILSHSNVKTLSGGIPVNGPRLESLVLTYVNAISSGDLPCMENAVLALAQIENSAAVEKAIAHYEQQMGQKVQLPTETLQELLDLHRDSEREAIEVFMKNSFKDVDQMFQRKLGAQLEARRDDFCKQNSKASSDCCMALLQDIFGPLEEDVKQGTFSKPGGYRLFTQKLQELKNKYYQVPRKGIQAKEVLKKYLESKEDVADALLQTDQSLSEKEKAIEVERIKAESAEAAKKMLEEIQKKNEEMMEQKEKSYQEHVKQLTEKMERDRAQLMAEQEKTLALKLQEQERLLKEGFENESKRLQKDIWDIQMRSKSLEPICNIL

How the values were obtained:
[1] = molecular target: the molecule itself; assay: SEC
[2] = molecular target: the molecule itself; assay: SEC-MALS

Row | Protein | stoichiometry N [1] | stoichiometry N [2]
1 | B1 | 2 | 
2 | B2 |  | 2
